Experimental data reported in US20170342151A1 (Memorial Sloan Kettering, published 2017).
Where two headings read alike, the source gives them in different places.

T1: D2.8.11, a peptide epitope for murine 763 (human)
T1 construct: also called antigen D2.8.11; peptide D2.8.11
T1 chain: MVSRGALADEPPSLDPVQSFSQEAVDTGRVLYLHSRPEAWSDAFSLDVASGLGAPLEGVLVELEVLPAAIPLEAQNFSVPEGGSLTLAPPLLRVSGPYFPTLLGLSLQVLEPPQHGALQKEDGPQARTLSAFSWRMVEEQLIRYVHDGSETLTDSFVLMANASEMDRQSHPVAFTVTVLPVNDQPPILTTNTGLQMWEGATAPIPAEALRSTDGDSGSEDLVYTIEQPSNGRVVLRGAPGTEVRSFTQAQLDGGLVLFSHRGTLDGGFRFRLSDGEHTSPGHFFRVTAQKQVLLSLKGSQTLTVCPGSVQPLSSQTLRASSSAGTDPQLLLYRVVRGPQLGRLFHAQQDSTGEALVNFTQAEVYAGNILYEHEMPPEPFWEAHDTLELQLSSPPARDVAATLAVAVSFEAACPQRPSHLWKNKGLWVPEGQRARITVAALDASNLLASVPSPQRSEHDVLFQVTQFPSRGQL


Key:
[1] = biological target: T2, anti-763 idiotype antibody MK2-23; experiment: SPR, Biacore T-100, MK2-23 on CM5 chip, monovalent analyte model
T2 construct: Immobilized on the CM5 chip; also called anti-idiotype MK2-23
Description: (§1) CMS sensor chip (Research grade) and related reagents were purchased from Biacore USA (Piscataway, N.J.). […] The system first run 20× cycles of buffer only to get stable baseline levels. […] Samples (60 μL) were injected over the sensor surface at a flow rate of 30 μL/min over 2 min. Association time was set for one minute; dissociation time was set for from five minutes to 30 minutes. Following completion of the association phase, dissociation was monitored in HBS-E buffer containing 250 mM NaCl at the same flow rate. At the end of each cycle, the surface was regenerated using 50 μL 20 mM NaOH at a flow rate of 50 μL/min over one minute and 100 μL 4M MgCl₂ at a flow rate of 50 μL/min over two minutes.

[2] = biological target: T1, D2.8.11, a peptide epitope for murine …; experiment: SPR, Biacore T-100
[3] = biological target: T2, anti-763 idiotype antibody MK2-23; experiment: SPR, Biacore T-100, MK2-23 on CM5 chip, monovalent analyte model; remark: listed apart in the source
Description: as §1

[4] = biological target: T1, D2.8.11, a peptide epitope for murine …; experiment: SPR, Biacore T-100, D2.8.11 on CM5 chip, bivalent analyte model
Description: as §1

[5] = biological target: T3, human chondroitin sulfate proteoglycan 4 (CSPG4) on cells (human, UniProt Q6UVK1 30-2322); experiment: ELISA on M14 cell-coated plates, HRP goat anti-human secondary
T3 construct: Target on CSPG4-positive M14 cells (FACS, cell ELISA) and in frozen human tissue sections (IHC); also called HMW-MAA; MCSP
Description: Hu763-IgG1 was also subjected to five cycles of a freeze and thaw process. […] Antigen binding was expressed as % of MFI of maximum binding at 5 μg. E, ELISA analysis of hu763-IgG1 and hu763-IgG1n on M14 cells coated plates. Binding was detected with HRP conjugated goat anti-human secondary antibody. Hu763-IgG1n was subjected to five cycles of a freeze and thaw process.
An ELISA method using coated M14 as antigen was also used to assay hu763-IgG1 and hu763-IgG1n binding (FIG. 3E). […] Hu763-IgG1n still bound to M14 cells well after subjected to five cycles of freezing and thawing process.

[6] = biological target: CD3 antigen (surface plasmon resonance); experiment: SPR, Biacore, two state reaction model

T3 sequence (Q6UVK1 30-2322 limits assumed): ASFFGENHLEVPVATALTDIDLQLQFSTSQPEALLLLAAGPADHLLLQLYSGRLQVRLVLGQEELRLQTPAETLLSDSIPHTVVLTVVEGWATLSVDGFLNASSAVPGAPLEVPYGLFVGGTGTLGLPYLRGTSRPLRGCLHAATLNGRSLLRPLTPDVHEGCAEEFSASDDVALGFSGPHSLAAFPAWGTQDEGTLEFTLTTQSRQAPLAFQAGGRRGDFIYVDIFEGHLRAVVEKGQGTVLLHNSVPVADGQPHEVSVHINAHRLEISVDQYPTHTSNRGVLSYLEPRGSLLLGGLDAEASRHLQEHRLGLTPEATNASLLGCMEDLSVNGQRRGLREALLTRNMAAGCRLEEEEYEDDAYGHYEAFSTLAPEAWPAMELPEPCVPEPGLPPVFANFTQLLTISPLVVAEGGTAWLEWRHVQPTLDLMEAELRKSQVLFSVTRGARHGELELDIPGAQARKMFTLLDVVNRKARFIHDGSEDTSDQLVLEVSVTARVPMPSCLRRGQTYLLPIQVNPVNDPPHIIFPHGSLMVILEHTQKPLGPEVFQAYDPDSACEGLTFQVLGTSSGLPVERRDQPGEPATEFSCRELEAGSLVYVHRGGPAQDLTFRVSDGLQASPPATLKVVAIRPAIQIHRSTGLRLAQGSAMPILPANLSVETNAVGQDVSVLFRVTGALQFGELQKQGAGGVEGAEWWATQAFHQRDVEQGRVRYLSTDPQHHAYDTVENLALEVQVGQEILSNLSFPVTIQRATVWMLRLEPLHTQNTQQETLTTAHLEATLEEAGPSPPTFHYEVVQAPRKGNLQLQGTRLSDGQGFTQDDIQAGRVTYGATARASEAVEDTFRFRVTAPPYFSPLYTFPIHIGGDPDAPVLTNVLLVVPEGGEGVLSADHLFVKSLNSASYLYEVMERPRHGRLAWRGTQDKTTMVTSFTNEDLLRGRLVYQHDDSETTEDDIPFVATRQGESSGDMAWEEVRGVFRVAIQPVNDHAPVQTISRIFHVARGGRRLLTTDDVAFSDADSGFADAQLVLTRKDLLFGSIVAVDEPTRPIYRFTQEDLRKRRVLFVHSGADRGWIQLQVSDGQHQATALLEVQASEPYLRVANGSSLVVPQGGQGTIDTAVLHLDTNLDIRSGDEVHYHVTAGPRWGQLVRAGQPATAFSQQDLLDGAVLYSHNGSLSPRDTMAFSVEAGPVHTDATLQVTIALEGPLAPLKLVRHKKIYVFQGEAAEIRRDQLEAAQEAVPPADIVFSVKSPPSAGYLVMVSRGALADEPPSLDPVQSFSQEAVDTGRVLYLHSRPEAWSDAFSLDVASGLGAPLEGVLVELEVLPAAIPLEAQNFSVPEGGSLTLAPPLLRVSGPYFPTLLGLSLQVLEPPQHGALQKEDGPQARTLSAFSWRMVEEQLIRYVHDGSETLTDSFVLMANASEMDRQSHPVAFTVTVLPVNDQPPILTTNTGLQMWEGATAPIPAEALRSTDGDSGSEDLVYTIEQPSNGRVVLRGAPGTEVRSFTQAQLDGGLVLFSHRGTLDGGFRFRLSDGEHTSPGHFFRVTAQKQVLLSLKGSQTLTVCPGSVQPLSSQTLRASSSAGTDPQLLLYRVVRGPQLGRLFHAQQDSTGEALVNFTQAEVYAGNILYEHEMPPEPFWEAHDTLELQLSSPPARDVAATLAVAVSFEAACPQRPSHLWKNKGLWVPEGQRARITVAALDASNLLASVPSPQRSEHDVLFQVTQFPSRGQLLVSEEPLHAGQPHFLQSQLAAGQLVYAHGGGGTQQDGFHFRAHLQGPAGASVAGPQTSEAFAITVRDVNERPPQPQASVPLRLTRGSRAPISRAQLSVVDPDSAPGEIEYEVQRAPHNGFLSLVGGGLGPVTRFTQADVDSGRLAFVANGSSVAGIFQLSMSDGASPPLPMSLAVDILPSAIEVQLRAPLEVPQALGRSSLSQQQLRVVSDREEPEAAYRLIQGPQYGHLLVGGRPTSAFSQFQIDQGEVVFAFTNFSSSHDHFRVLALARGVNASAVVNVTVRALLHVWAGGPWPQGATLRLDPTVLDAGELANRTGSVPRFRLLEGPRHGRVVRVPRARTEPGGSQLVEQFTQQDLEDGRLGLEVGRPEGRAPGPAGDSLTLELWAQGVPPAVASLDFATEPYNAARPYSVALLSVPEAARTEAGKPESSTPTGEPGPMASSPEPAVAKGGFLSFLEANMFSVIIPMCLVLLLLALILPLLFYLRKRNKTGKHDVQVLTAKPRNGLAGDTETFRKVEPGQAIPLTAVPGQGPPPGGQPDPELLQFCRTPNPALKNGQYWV

| Binder | Kd [1] [nM] | koff [1] [s⁻¹] | kon [1] [M⁻¹ s⁻¹] | Kd [2] [nM] | kon [2] [M⁻¹ s⁻¹] | Kd [3] [nM] | koff [3] [s⁻¹] | kon [3] [M⁻¹ s⁻¹] | Kd [4] [nM] | koff [4] [s⁻¹] | kon [4] [M⁻¹ s⁻¹] | binding result [5] | Kd [6] [nM] | koff [6] [s⁻¹] | kon [6] [M⁻¹ s⁻¹] |
| --- | --- | --- | --- | --- | --- | --- | --- | --- | --- | --- | --- | --- | --- | --- | --- |
| murine anti-CSPG4 antibody 763.74 (antibody, V domains shown, also called m763) VH: QIQLVQSGPELKKPGETVKISCKASGYTFTDYSMHWVKKTPGKGLKWLGWINTATGEPTYADDFKGRFAISLETSARTVYLQINNLRNEDTATYFCFSYYDYWGQGTTLTVS VL: DIKLSQSPSILSVTPGETVSLSCRASQTIYKNLHWYQQKSHRSPRLLIKYGSDSISGIPSRFTGSGSGTDYTLNINSVKPEDEGIYYCLQGYSTPWTFGGGTKLEIK | 0.582 | 8.5e-05 | 146000 | 1.3 | 29600 | 2.09 | 0.000163 | 78200 | 1.34 | 3.89e-05 | 29000 |  |  |  |  |
| ch763IgG1, chimeric 763 HC and LC in IgG1 format (antibody, V domains shown) VH: QIQLVQSGPELKKPGETVKISCKASGYTFTDYSMHWVKKTPGKGLKWLGWINTATGEPTYADDFKGRFAISLETSARTVYLQINNLRNEDTATYFCFSYYDYWGQGTTLTVSA VL: DIKLSQSPSILSVTPGETVSLSCRASQTIYKNLHWYQQKSHRSPRLLIKYGSDSISGIPSRFTGSGSGTDYTLNINSVKPEDEGIYYCLQGYSTPWTFGGGTKLEIKR |  |  |  |  |  | 1.89 | 0.000339 | 179000 | 84 | 0.00295 | 35100 |  |  |  |  |
| hu763IgG1n H2-L2, humanized 763 H2 and L2 in IgG1 format with variant glycosylation (antibody, variant Fc glycosylation from expression in GnT1-deficient CHO cells (78.3% mannose, 20.5% N-acetyl glucosamine, 1.2% glucose; no fucose), also called hu763-H2L2-IgG1n) heavy: not shown light: EIVLTQSPATLSVSPGETVTLSCRASQTIYKNLHWYQQKSGLSPRLLIKYGSDSISGIPARFSGSGSGTDYTLTINSVEPEDEGIYYCLQGYSTPWTFGQGTKLEIKRTVAAPSVFIFPPSDEQLKSGTASVVCLLNNFYPREAKVQWKVDNALQSGNSQESVTEQDSKDSTYSLSSTLTLSKADYEKHKVYACEVTHQGLSSPVTKSFNRGEC | 0.449 | 7.54e-05 | 168000 |  |  |  |  |  | 1.15 | 3.28e-05 | 28500 | binds |  |  |  |
| hu763IgG1 H2-L2, humanized 763 H2 and L2 in IgG1 format (antibody, also called parental hu763) heavy: not shown light: EIVLTQSPATLSVSPGETVTLSCRASQTIYKNLHWYQQKSGLSPRLLIKYGSDSISGIPARFSGSGSGTDYTLTINSVEPEDEGIYYCLQGYSTPWTFGQGTKLEIKRTVAAPSVFIFPPSDEQLKSGTASVVCLLNNFYPREAKVQWKVDNALQSGNSQESVTEQDSKDSTYSLSSTLTLSKADYEKHKVYACEVTHQGLSSPVTKSFNRGEC |  |  |  |  |  | 1.75 | 0.000181 | 103000 | 1.29 | 3.81e-05 | 29600 |  |  |  |  |
| hu763IgG4 H2-L2, humanized 763 H2 and L2 in IgG4 format (antibody) heavy: not shown light: EIVLTQSPATLSVSPGETVTLSCRASQTIYKNLHWYQQKSGLSPRLLIKYGSDSISGIPARFSGSGSGTDYTLTINSVEPEDEGIYYCLQGYSTPWTFGQGTKLEIKRTVAAPSVFIFPPSDEQLKSGTASVVCLLNNFYPREAKVQWKVDNALQSGNSQESVTEQDSKDSTYSLSSTLTLSKADYEKHKVYACEVTHQGLSSPVTKSFNRGEC | 0.48 | 8.01e-05 | 167000 |  |  |  |  |  | 1.22 | 3.5e-05 | 28700 |  |  |  |  |
| hu763-HC-OKT3, humanized 763 IgG1 with huOKT3 scFv on the C-terminus of the heavy chain (bispecific antibody, IgG-scFv format, aglycosylated Fc (N297A); also called hu763-HC-huOKT3; hu763-BsAb) heavy: not shown light: EIVLTQSPATLSVSPGETVTLSCRASQTIYKNLHWYQQKSGLSPRLLIKYGSDSISGIPARFSGSGSGTDYTLTINSVEPEDEGIYYCLQGYSTPWTFGQGTKLEIKRTVAAPSVFIFPPSDEQLKSGTASVVCLLNNFYPREAKVQWKVDNALQSGNSQESVTEQDSKDSTYSLSSTLTLSKADYEKHKVYACEVTHQGLSSPVTKSFNRGEC |  |  |  |  |  |  |  |  |  |  |  |  | 231 | 0.0696 | 302000 |
